The values that follow come from patent US20260234242A1 (HAINAN SIMCERE ZAIMING PHARMACEUTICAL, published 2026).

Assay [1] has as its target T1, human CDH6 with EC4 removed, on HEK293T cells (HEK293T-hCDH6-EC4 deletion) (human, UniProt P55285 54-790).
T1 construct: Signal peptide not removed here
T1 sequence: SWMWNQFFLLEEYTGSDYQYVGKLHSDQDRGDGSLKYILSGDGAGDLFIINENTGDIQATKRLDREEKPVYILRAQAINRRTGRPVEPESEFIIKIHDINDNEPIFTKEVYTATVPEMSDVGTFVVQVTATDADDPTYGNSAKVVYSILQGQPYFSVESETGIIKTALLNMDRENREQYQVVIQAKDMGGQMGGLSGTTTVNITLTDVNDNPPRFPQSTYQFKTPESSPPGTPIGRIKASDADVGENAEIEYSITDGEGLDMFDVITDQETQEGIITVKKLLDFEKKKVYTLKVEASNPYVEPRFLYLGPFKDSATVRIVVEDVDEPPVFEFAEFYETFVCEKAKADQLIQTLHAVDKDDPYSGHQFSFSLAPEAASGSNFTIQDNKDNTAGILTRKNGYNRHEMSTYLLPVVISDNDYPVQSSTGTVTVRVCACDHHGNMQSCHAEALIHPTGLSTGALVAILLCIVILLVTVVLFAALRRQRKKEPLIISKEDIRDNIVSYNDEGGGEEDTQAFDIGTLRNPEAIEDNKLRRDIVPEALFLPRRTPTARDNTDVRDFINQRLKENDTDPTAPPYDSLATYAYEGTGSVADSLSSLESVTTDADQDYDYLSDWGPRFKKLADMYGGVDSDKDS
The assay is described as follows: FACS, HEK293T-hCDH6-EC4 deletion cells. The text has this: To confirm the binding epitope of the CDH6 antibody, the sequences after removal of these 5 regions were constructed into pcDNA3.1 vectors (purchased from Youbio, Cat. No. VT1001), and transfected into HEK293T cells (purchased from Cell Bank of Chinese Academy of Sciences, Cat. No. SCSP-502) to obtain 5 CDH6 truncated cell lines: HEK293T-hCDH6-EC1 deletion, HEK293T-hCDH6-EC2 deletion, HEK293T-hCDH6-EC3 deletion, HEK293T-hCDH6-EC4 deletion, and HEK293T-hCDH6-EC5 deletion.
The binding activity of the CDH6 chimeric antibodies to these 5 cell lines was assayed by FACS.

Assay [2] has as its target T2, human CDH6 with EC1 removed, on HEK293T cells (HEK293T-hCDH6-EC1 deletion) (human, UniProt P55285 160-790).
T2 construct: Signal peptide not removed here
T2 sequence: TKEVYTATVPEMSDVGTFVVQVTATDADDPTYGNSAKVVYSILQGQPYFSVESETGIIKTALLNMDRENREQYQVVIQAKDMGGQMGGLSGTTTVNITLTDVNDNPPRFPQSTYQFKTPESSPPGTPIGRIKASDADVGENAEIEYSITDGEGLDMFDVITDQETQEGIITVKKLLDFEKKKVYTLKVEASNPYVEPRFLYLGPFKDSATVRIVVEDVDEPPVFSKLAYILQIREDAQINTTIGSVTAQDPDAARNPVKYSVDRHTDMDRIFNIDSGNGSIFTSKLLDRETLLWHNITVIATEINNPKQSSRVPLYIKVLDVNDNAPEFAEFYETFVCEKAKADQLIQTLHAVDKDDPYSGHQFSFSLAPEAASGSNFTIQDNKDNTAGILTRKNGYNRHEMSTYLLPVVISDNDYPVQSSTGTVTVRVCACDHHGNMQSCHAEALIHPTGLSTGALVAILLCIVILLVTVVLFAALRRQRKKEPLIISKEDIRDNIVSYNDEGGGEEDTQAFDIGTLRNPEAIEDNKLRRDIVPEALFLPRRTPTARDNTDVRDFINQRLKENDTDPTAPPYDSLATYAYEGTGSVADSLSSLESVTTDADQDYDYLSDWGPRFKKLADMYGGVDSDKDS
The assay is described as follows: FACS, HEK293T-hCDH6-EC1 deletion cells. For orientation: Flow cytometry measures light scatter and fluorescence of single cells or particles in a stream.

Assay [3] has as its target T3, human CDH6 on tumor cells (OVCAR3 cells, PA-1 cells) (human, UniProt P55285 54-790).
T3 sequence: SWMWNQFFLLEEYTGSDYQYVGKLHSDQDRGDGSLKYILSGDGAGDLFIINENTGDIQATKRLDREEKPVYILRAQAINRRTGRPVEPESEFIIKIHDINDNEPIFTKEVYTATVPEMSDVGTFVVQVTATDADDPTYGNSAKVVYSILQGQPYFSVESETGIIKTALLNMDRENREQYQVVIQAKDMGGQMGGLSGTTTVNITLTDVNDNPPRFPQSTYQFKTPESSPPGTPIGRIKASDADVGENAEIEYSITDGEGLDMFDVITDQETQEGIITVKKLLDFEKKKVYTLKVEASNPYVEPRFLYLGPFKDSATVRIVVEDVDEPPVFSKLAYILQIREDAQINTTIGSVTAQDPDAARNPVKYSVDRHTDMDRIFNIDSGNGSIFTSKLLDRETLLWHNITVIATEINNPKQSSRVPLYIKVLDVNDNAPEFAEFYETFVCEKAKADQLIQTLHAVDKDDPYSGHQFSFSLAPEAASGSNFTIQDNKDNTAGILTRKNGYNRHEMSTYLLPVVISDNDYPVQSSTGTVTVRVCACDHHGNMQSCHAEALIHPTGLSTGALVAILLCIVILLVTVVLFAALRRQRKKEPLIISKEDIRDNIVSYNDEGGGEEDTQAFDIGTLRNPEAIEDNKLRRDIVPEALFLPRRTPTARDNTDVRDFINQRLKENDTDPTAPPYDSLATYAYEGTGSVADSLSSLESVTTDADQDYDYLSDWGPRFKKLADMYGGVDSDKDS
Put plainly: FACS, OVCAR3 cells, 4° C. arm of endocytosis assay. As to the method: OVCAR3 cells were cultured until a confluence of 90% was reached, the medium was removed by pipetting, the cells were washed once with PBS, and then treated with an enzyme-free cell dissociation solution (Versene, purchased from Gibco, Cat. No. 15040-066) and the cells were collected. The cells were washed once with PBS, counted, resuspended to 2×10⁶ cells/mL in an FACS buffer (PBS+2% FBS), and then added to two 96-well plates at 50 μL/well. The chimeric antibodies were diluted with FACS buffer (PBS+2% FBS) to 10 μg/mL and separately added to the two 96-well plates at 50 μL/well, and the plates were incubated at 4° C. for 1 h. After the cells were washed 3 times with PBS, the cells were resuspended in an FACS buffer. One 96-well plate was incubated at 4° C. for 1 h, and the other 96-well plate was incubated at 37° C. for 1 h. […] After the plates were centrifuged and washed 2 times with PBS, the cells were resuspended in an FACS buffer. The mean fluorescence intensity (MFI) was measured using FACS Canton II (BD). The chimeric antibodies tested all had good endocytic activity.
Some of the antibodies were selected for the endocytic activity assay, and the method for assaying the endocytic activity of the humanized antibodies in OVCAR3 cells was the same as that in 2.4. The humanized antibodies tested all had good endocytic activity.

B1: CHI-CDH6-7 (antibody, human IgG1, kappa, V domains shown)
VH: EVKLVESGGGLVKPGGSLKVSCAASGFTFSDHGMAWVRQAPGKGPEWVAFISNLAYSIYYADTVTGRFTISRENAKNTLYLEMSSLRSEDTAMYYCARVYVKWYFDVWGAGTTVTVSS
VL: DIQMTQSPASLSASVGETVTITCRASENIDSYLAWYQQKQGKSPQLLVFAATLLADGVPSRFSGSGSGTQYSLKINSLQSEDVARYYCQHYYSTPLTFGAGTKLELKR
notes: also called CH1-CDH6-7; chimeric antibody of murine CDH6-7
In the case of B1, in assay [1], the “Max MFI” value amounted to 17400 MFI. Besides, the binding result in assay [2] is “no binding”.

B2: hCDH6-6-H2L2 (antibody, V domains shown)
VH: EVQLVQSGAEVKKPGASVKVSCKASGYTFTDYYMAWVRQAPGQGLEWMGYIFPNSGGTDYSQKFKGRVTLTVDKSTSTVYMELSSLRSEDTAVYYCARELGADYGDYYAMDHWGQGTTVTVSS
VL: DIQMTQSPSSLSASVGDRVTITCRASENIDSYLAWYQQKPGKSPKLLVYSATLLADGVPSRFSGSGSGTDYTLTISSLQPEDFATYYCQHYYRTPPTFGQGTKLEIK
notes: Humanized
B2: the “MFI_4° C.” value in assay [3] turned out to be 20500 MFI.

B3: CHI-CDH6-1 (antibody, human IgG1, kappa, V domains shown)
VH: QVQLQQPGAELVRPGSSVKLSCKASGYTFTNYWMHWVKQRPIEGLEWIGDIDPSHSETHYTQKFKDKATLTVDKSSSTAYMQLSSLTSEDSAVYYCARGDLGRFDYWGQGTTLTVSS
VL: DIVLTQSPASLAVSLGQRATISCRASESVSIHGTHLMHWYQQKSGQPPKLLIYAASNLESGVPARFSGSGSETDFTFNIHPVEEEDAATYFCQQSFEDPWTFGGGTKLEIKR
notes: also called CHI-hCDH6-1; CH1-CDH6-1
For B3, in assay [1], the “Max MFI” value came to 30000 MFI. Moreover, the binding result in assay [2] is “no binding”.

B4: CHI-CDH6-3 (antibody, human IgG1, kappa, V domains shown)
VH: QVQLQQPGAELVKPGASVKLSCKASGYTFTSYWIHWVKQRPGQGLEWIGEINPSNGVTNCNENFKSKATLTVDKSSSTAYMQLSSLTSEDSAVYYCTIPNLLWWYFDVWGAGTTVTVSS
VL: DIQMTQSPASLSVSVGETVTITCRASENIYSNLAWYQQKQGKSPQLLVYEATNLADGVPSRFSGSGSGTQYSLKINSLQSEDFGSYYCQHFWGTLWTFGGGTKLEIKR
notes: also called CH1-CDH6-3; chimeric antibody of murine CDH6-3
Regarding B4, the “Max MFI” value in assay [1] is 16800 MFI.

B5: CHI-CDH6-5 (antibody, human IgG1, kappa, V domains shown)
VH: QVQLQQSGAELVRPGTSVKMSCKAAEYTFTNYWIGWVKQRPGHGLEWIGDLYPGGDHANYNEKFEGKATLTADTSSSTAYMQLSSLTSEDSAIYYCARGMLTTGFDSWGQGTTLTVSS
VL: DIVMSQSPSSLAVSAGEKVTMSCKSSQSLFNSRTRKNYLAWYQQKPGQSPKLLIYWASTRESGVPDRFTGSGSGTDFTLTISSVQAEDLAVYYCKQSYYLRTFGGGTKLEIKR
notes: also called CH1-CDH6-5; chimeric antibody of murine CDH6-5
On to B5, for which the “Max MFI” value in assay [1] came to 18700 MFI. The binding result in assay [2] is given as “no binding”.

B6: hCDH6-1-H2L3 (antibody, V domains shown)
VH: EVQLVQSGAEVKKPGSSVKVSCKASGYTFTNYWMHWVRQAPGQGLEWMGDIDPSHSETHYTQKFKDRVTITVDKSTSTAYMELSSLRSEDTAVYYCARGDLGRFDYWGQGTTVTVSS
VL: DIQMTQSPSSLSASVGDRVTITCRASESVSIHGTHLMHWYQQKPGKPPKLLIYAASNLESGVPSRFSGSGSETDFTFTISSLQPEDIATYYCQQSFEDPWTFGGGTKVEIK
notes: Humanized
Take B6: the “MFI_4° C.” value in assay [3] was determined as 20200 MFI.

B7: CHI-CDH6-4 (antibody, human IgG1, kappa, V domains shown)
VH: QVQLQQSGPELVKPGASVKISCKASGYAFSNFWMNWVKQRPGKGLEWIGWIYPGDGDTNYNGKFKDKATLTADKSSSTAYIQLSSLTSEDSAVYFCARLYDAWGFFDYWGQGTTLTVSS
VL: QIVLTQSPAIMSASPGQKVTITCSASSSVNYMHWYQQKLGSSPKLWIYDKSKLAPGVPARFSGSGSGTSYSLTISSMEAEDAASYFCHQWSSYPPMTFGGGTKLEIKR
notes: also called CH1-CDH6-4; chimeric antibody of murine CDH6-4
On to B7, for which the “Max MFI” value in assay [1] was 22200 MFI.

B8: CHI-CDH6-14 (antibody, human IgG1, kappa, V domains shown)
VH: QIQLQQSGPELVKPGTSVKISCKASGYTFTDNYINWVRQRPGQGLEWIGWIYPGTGNSYYNEKFKGKATLTVDTSSSTAYMQFSSLTSEDSAVYLCASSYGDSFDYWGQGTTLTVSS
VL: DIQMTQTTSSLSASLGNRVTISCRASQDIRNYLNWYQQKPDGTFKLLISYTSRLHSGVPSRFSGSGSGTDYSLTVSNLEPEDIATYYCQQYSQLPWTFGGGSRLEIKR
notes: also called CHI-hCDH6-14; CH1-CDH6-14
As for B8, in assay [1], the “Max MFI” value was 26600 MFI.

B9: CHI-CDH6-12 (antibody, human IgG1, kappa, V domains shown)
VH: EVNLVESGGGLVQPGDSLTLSCSASGFTFTDYYMSWVRQFPGKALEWLALIRNKANSYTTEYSASVKGRFTISRDNSQSILYLQMNALRAEDSATYYCARDSYYSHDGFAYWGQGTLVTVSA
VL: DIVLTQSPASLAVSLGQRATISCRASKSVSTSSYTYMHWYQQKPGQPPKLLIKFASYLESGVPARFSGSGSGTDFTLNIHPVEEEDAATYYCQHSREFPFTFGTGTKLEIKR
notes: also called CH1-CDH6-12; chimeric antibody of murine CDH6-12
As for B9, the “Max MFI” value in assay [1] came out at 16600 MFI.

B10: DS-H01L02 (antibody, human IgG1, kappa, V domains shown)
VH: EVQLVQSGAEVKKPGASVKVSCKASGYTFTRNFMHWVRQAPGQGLEWMGWIYPGDGETEYAQKFQGRVTITADTSTSTAYMELSSLRSEDTAVYYCARGVYGGFAGGYFDFWGQGTLVTVSS
VL: DIQMTQSPSSLSASVGDRVTITCKASQNIYKNLAWYQQKPGKAPKLLIYDANTLQTGVPSRFSGSGSGSDFTLTISSLQPEDFATYFCQQYYSGWAFGQGTKVEIKR
notes: Positive control, variable regions from WO2018212136A1; also called positive control anti-human CDH6 antibody
Consider B10, for which the “MFI_4° C.” value in assay [3] came to 11400 MFI. For the same molecule, the “Max MFI” value in assay [1] is 11800 MFI.

B11: NOV0712 (antibody, human IgG1, kappa, V domains shown)
VH: QVQLLESGGGLVQPGGSLRLSCAASGFTFSSHGMHWVRQAPGKGLEWVSVISGSGSNTGYADSVKGRFTISRDNSKNTLYLQMNSLRAEDTAVYYCARQWGSYAFDSWGQGTLVTVSS
VL: DIQMTQSPSSLSASVGDRVTITCRASQSISSYLNWYQQKPGKAPKLLIYAVSTLQSGVPSRFSGSGSGTDFTLTISSLQPEDFATYYCQQSGTFPPTTFGQGTKVEIKR
notes: as for B10
On to B11, for which the “MFI_4° C.” value in assay [3] was determined as 13600 MFI. The “Max MFI” value in assay [1] is 20600 MFI.
